Target: T1, recombinant human LPHN2 lectin-olfactomedin-like-GAIN/GPS domain, residues F26-R796 (human), O95490
T1 chain: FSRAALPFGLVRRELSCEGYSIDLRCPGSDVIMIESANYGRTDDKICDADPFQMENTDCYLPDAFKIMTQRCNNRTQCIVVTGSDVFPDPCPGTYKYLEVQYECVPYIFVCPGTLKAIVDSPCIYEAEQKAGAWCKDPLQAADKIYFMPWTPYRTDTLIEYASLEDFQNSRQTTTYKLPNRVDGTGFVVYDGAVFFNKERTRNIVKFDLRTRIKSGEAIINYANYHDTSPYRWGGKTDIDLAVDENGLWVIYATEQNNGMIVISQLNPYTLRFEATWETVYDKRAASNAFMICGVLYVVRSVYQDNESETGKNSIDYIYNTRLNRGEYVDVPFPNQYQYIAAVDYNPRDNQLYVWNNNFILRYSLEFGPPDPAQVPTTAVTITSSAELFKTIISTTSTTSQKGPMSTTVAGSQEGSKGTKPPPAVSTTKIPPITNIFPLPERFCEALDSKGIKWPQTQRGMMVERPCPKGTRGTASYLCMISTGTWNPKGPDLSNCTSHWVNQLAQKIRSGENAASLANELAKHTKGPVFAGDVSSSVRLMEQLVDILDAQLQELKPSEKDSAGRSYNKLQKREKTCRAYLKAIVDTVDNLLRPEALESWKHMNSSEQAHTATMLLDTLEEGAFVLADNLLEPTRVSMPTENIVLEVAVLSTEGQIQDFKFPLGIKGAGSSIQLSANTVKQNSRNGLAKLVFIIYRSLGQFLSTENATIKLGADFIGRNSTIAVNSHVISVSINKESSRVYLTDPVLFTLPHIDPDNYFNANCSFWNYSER
Assay: solid-phase binding (ELISA)
Details: ligand; chains chain; N-linked glycans removed with PNGase F (sites N79, N186, N269, N325 on SEQ ID NO: 1); remark: other sources report otherwise

B1: deglycosylated LRG1 (LRG1 treated with PNGase F), P02750 36-347 (protein)
chain: VTLSPKDCQVFRSDHGSSISCQPPAEIPGYLPADTVHLAVEFFNLTHLPANLLQGASKLQELHLSSNGLESLSPEFLRPVPQLRVLDLTRNALTGLPPGLFQASATLDTLVLKENQLEVLEVSWLHGLKALGHLDLSGNRLRKLPPGLLANFTLLRTLDLGENQLETLPPDLLRGPLQLERLHLEGNKLQVLGKDLLLPQPDLRYLFLNGNKLARVAAGAFQGLRQLDMLDLSNNSLASVPEGLWASLGQPNWDMRDGFDISGNPWICDQNLSDLYRWLQAQKDKMFSQNDTRCAGPEAVKGQTLLAVAKSQ
Kd: 840 nM

From patent publication US20240083959A1
